Non-standard residues stand in square brackets, D forms with d. No end group written: not given here.
Target: soluble human furin (human) (UniProt P09958)
Test: enzyme inhibition

B1: nona-D-arginine (peptide)
peptide: [dR][dR][dR][dR][dR][dR][dR][dR][dR]
- Ki: 140 nM

Source: publication PMC4737579
